This note sets out measurements from the supplement of paper PMC12042874.

± gives the uncertainty stated by the source.

A short description of the data set: amyloid nucleation score (Sup35N fusion, yeast selection) (log enrichment); library NNK2; higher = more nucleation; inactive = no reads after selection. The procedure, abridged:
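DiMSum was used to calculate nucleation scores as log enrichment of output over input reads, centred on the mode score of non-aggregating sequences. Sequences with fewer than 100 input reads were not scored. Input and output came from Illumina sequencing of plasmid inserts in psi-negative yeast expressing peptides of 20 random codons fused to Sup35N, induced 24 hours with 100 μM copper sulfate and then grown 7 days at 30°C on medium lacking adenine and uracil.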
The substance WCPLWITCMCLCSGLST returned an amyloid nucleation score of 8.742 ± 0.036. As for WDDFTYGYRLRIYFLIFQRG, the amyloid nucleation score is -1.15 ± 1.1. With WDIFICLVL the figure was -0.063 ± 0.74; with WDLLLCNTKFFEIRIKADTL, 3.94 ± 0.094. The substance WELVSGVYVTGCTFSSEDVQ showed an amyloid nucleation score of -0.785 ± 0.29. To WERVKYLLDYL belongs “inactive”; to WFMNSNVLHYM, 0.27 ± 0.64. As for WFPRSNAYLCMCFFVLREYQ, the amyloid nucleation score turned out to be 0.428 ± 0.66. With WGHFAMVRA, the amyloid nucleation score came out at 0.426 ± 0.8. To WGHLFRSPSRSSRFYRVLPA belongs -0.159 ± 1.1. To WGIWFKPALFRNLYTIFAWL belongs “inactive”. The substance WGMWCMFHCRVAS displayed an amyloid nucleation score of -0.196 ± 1. Consider WHDRDTITGSITIKKMH, for which the amyloid nucleation score was -0.702 ± 0.32.

WHLVGRRSID showed an amyloid nucleation score of -0.336 ± 0.76.

For WHSVKMVNMFVGSKVISRSF, the amyloid nucleation score stood at 5.42 ± 0.07. With WIREY the figure was -0.43 ± 0.32. With WIVSF the figure was 0.131 ± 0.29; with WKNYRNMEWCVSSVLSFFYV, 5.31 ± 0.077. For the substance WKQLSSWIAIDSLRARKTLS, the amyloid nucleation score was -0.405 ± 0.42. To WKSCWLGIWSEGIYILGEET belongs -0.284 ± 1.1.

Turning to WKTKISSSSCRSGNRSEPNA, the amyloid nucleation score was 0.281 ± 0.29. To WLCDWLASIWCMFGLSGCSR belongs 0.232 ± 0.35.

The substance WLDLTYFFSRLGVDVISLQ showed an amyloid nucleation score of -0.468 ± 0.48. For the substance WLGYFK, the amyloid nucleation score entry is “inactive”. In turn, WLICQSIRLLAKNFLLSDRV gave an amyloid nucleation score of 0.019 ± 1.1. To WLIGRNAKSWAWVFLKRSTG belongs 0.392 ± 0.25; to WLKVS, -1.48 ± 0.55; to WLLLYTCHLMISQISFHRKS, -0.874 ± 0.61. To WLRNWGYAFGPRQNYNCCRV belongs -0.569 ± 0.49; to WLSTKWIFFISNVKFFLYLR, -0.06 ± 1. With WLTKLDRTSLEGSEYFKKML the figure was 0.307 ± 0.34; with WLTLGVYELRWMRSPNTGCL, 1.8 ± 0.23; with WLWSSLISSMVVYSQ, 2.53 ± 0.072. The substance WLYRQFDLSLESYNWMPGIE came in with an amyloid nucleation score of 3.95 ± 0.12. With WMIGRCD the figure was 0.319 ± 0.61; with WMLRGRYFGTE, -1.47 ± 0.44; with WMWPPMPLGKVAQRGLAVVC, 1.28 ± 0.22. With WNMYNRIWFLGHKLLWGSPT, the amyloid nucleation score was -0.414 ± 0.76. Regarding WNNYVLGYEVNRMCLLDRSV, the amyloid nucleation score entry is “inactive”. To WQIGPCYNVLRFLKWFWSLR belongs -0.637 ± 1.1; to WRAIVPSGK, 0.067 ± 0.63. Regarding WRCGVVFRDEYCYRGNRTFK, the amyloid nucleation score is -0.675 ± 0.26. As for WRCSSISCDCDARLGRMRVS, the amyloid nucleation score was determined as 0.697 ± 0.42. Turning to WRHSVVMYNWKIGHCVGDYW, the amyloid nucleation score stood at 0.718 ± 0.18. Consider WRVATCCAGRTIIQLETRFG, for which the amyloid nucleation score turned out to be 8.805 ± 0.058. Take WRYYAGWYESWSTAGQTCTF: the amyloid nucleation score is -0.487 ± 1.1.

As to WSCCKFLDCHITVCDFLVWA, the amyloid nucleation score stood at 7.587 ± 0.047. WSQRMLRSQEVPCSWWEIVT displayed an amyloid nucleation score of 0.905 ± 0.13.

Turning to WSRQHDSLMVLWGCRGYY, the amyloid nucleation score came to 0.148 ± 0.5. WSRSLKDGALESYSSVRLLC: the amyloid nucleation score was determined as 0.1 ± 0.28. With WSRTVYGIFCKIG the figure was 0.208 ± 0.65; with WSTSFYLLIFTPRVCCMDFF, 5.619 ± 0.034. With WSVGVESSKDQSLDQFGSD the figure was -0.184 ± 1.1; with WSWLRICIS, 0.549 ± 0.32. To WSWLSFYLSGMAFLVRYKSG belongs -0.344 ± 0.56; to WSWSLGNYYAHNVDCYSVGC, -0.266 ± 0.41; to WTTIEFRIKGNFM, 1.59 ± 0.19. For WTWEKWESPHEDGSRRPIVG, the amyloid nucleation score came to 1.55 ± 0.18. To WTWFESVLRPCKGLGRAPHI belongs -0.172 ± 0.8; to WTYRCPALLFYQFYAKGYA, -0.594 ± 0.63. With WVAFANFVHGLMTLGHWGSR the figure was 1.28 ± 0.27.

On to WVELVCPYSTYLLSFIASLS, for which the amyloid nucleation score worked out at 0.278 ± 0.54. As to WVFGLCSIPLHCVLHGIMMG, the amyloid nucleation score was found to be 2.92 ± 0.16. To WVFNNELCNDYEHWLWARFD belongs -0.295 ± 0.56. The substance WVGGYIQLFYVTRPQVSGRP had an amyloid nucleation score of 3.17 ± 0.061.

Substance WVLYGASLCYPWVTSSKLRA showed an amyloid nucleation score of 0.589 ± 0.42. In the case of WVMAISLADFVLYLNWSLYR, the amyloid nucleation score entry is “inactive”. To WVMAVVDHVLSWFYWRLCLF belongs 3.26 ± 0.058. Take WVTSDRYKRALARKSHEQRN: the amyloid nucleation score stood at 0.423 ± 0.24. With WVYFHSNNSDLLDNEIKLTR the figure was 0.652 ± 0.66; with WVYNLALCNSRVIKG, -0.51 ± 0.48; with WWLKALPRVILARLVSRGQG, 0.458 ± 0.29.

Turning to WWTAQGCTELTVS, the amyloid nucleation score worked out at 0.855 ± 0.27.

Turning to WYISARPYVFCYDMQRSLRL, the amyloid nucleation score was -0.505 ± 1.1. In turn, WYMLLRESPGSCPVGDEQGR yielded an amyloid nucleation score of 0.923 ± 0.81. WYRLLGFAMD registered an amyloid nucleation score of -0.603 ± 1.1. With WYSSSIGHKMWVTYGSLWGQ the figure was 0.505 ± 0.54. In turn, WYVYSQ returned an amyloid nucleation score of 3.25 ± 0.052. With YACFDCIIIQAWKFSIGTGL the figure was 3.7 ± 0.051; with YAESSNDARSSFISKVSAFI, “inactive”; with YAFIILISCFLTDDSTIGVY, -0.24 ± 0.55. To YAIKMGFASQVSVEFRWLYK belongs -0.244 ± 0.28. With YAKNYSILQACQLDHWEFGV the figure was 4.04 ± 0.056. Regarding YARTKDYVLVCLQGICAGVN, the amyloid nucleation score is -0.14 ± 1. To YAVENTLYHVRVVTLQSISW belongs 0.153 ± 0.79; to YCDIKIEDLNLGGETGSDRR, “inactive”. With YCDVWGRRCCDANYMERTAS the figure was 1.35 ± 0.38. To YCNFDRIVYWPLGAAALPFR belongs 0.065 ± 1.1. Regarding YCVSNWASNFSLLLYNGNMY, the amyloid nucleation score result is “inactive”. Take YDYEEFRSVLKWIAGRIYVD: the amyloid nucleation score is -1.27 ± 0.48. For YDYYLMVISFRFVNFYNGVG, the amyloid nucleation score result is “inactive”. With YEFCSTRQRSELGGK, the amyloid nucleation score was 5.24 ± 0.069. YEHRNGLWSMKKRLIG registered an amyloid nucleation score of 0.253 ± 0.31. YEHVIGVWYLGCQGGWVGDH returned an amyloid nucleation score of 0.354 ± 0.29. YEISSLRSFRSVLNWYMSGS had an amyloid nucleation score of 4.6 ± 0.052. YERVRRSVYSSMFFSLFNTR had an amyloid nucleation score of -0.357 ± 1.1.

YESGVSCFFVYVMNTYHIWG gave an amyloid nucleation score of 5.17 ± 0.097. To YFDSDRS belongs -0.502 ± 0.76; to YFEPSSPGVIV, “inactive”; to YFFTLKV, 0.497 ± 0.46. With YFGMISERFRFPVYFQNSPR the figure was -1.14 ± 1.1; with YFGVEKDEFPPLLGMHMF, -1.59 ± 0.75.

Consider YFIGGGLRVMSRWWMCALMD, for which the amyloid nucleation score turned out to be 3.24 ± 0.086. YFILKFVQTGGNS had an amyloid nucleation score of 4.12 ± 0.041. With YFILVLVESLHPSGVPAFWC the figure was -0.103 ± 0.65. To YFISDEIVQSNIFSLIGWFC belongs 8.556 ± 0.042; to YFLLVVCGWHGFIIESLLRF, “inactive”; to YFNGL, “inactive”.

For YFSSTYLRQGIFWCFRMSRL, the amyloid nucleation score was -0.43 ± 1.1.

On to YFWGMFEYW, for which the amyloid nucleation score result was “inactive”. YFYIF gave an amyloid nucleation score of 2.03 ± 0.12. The substance YFYLFYCEIRVPTELYLNMP yielded an amyloid nucleation score of 3.15 ± 0.06. To YGALYTVRMEN belongs -0.482 ± 0.49. Consider YGFPDF, for which the amyloid nucleation score is -1.12 ± 1.1. Turning to YGFVDSHRTH, the amyloid nucleation score was found to be 0.092 ± 0.61. YGKKCLSKAKKSTKISLPG displayed an amyloid nucleation score of 0.016 ± 1.1. To YGLAFTEDATFFKVCTY belongs -0.211 ± 0.8.

As for YGLIFNLASFMLRGPRTSFS, the amyloid nucleation score was -2.15 ± 0.64.

YGPGFILSQMMNWLWYSCSS came in with an amyloid nucleation score of -0.765 ± 0.78. Take YGQLRHFVRTGLDGGTHRGL: the amyloid nucleation score was -0.174 ± 0.76. With YGRCNGLSGCQRGSCSREGG the figure was 0.483 ± 0.46; with YGRRGELN, -0.422 ± 1.1. In the case of YGVDLSRRMV, the amyloid nucleation score was determined as 0.043 ± 0.46.

Regarding YGVFYCSMPYCTSWGIHCVL, the amyloid nucleation score was determined as 7.19 ± 0.077. With YHFTLGCNSEGCR the figure was -0.668 ± 0.24. On to YHRYAAS, for which the amyloid nucleation score was -0.077 ± 0.39.

The substance YHVRIGSGRAVSLHV had an amyloid nucleation score of 0.382 ± 0.5. On to YHVVAWSWTRSYV, for which the amyloid nucleation score came out at 0.561 ± 0.4. To YHWWDLLLTLREPVRWRIQP belongs 1.55 ± 0.23; to YICRGASGIKSQLREWDVAH, -0.269 ± 0.74. With YIDALSIVFCVAVIGHTPTW the figure was 8.753 ± 0.039; with YIGLSRATWM, -1.75 ± 0.62; with YIGLVSS, -0.052 ± 0.65. To YIGSVIIWRRKVSRFHLGEA belongs 0.102 ± 0.79. In the case of YIHVVNTVSAVGVRRGSVGT, the amyloid nucleation score is 0.031 ± 0.76. YIKFDGSTWKGVVFYYEMWE displayed an amyloid nucleation score of -1.12 ± 0.76. As for YINHSHVRGIVRIYNVQV, the amyloid nucleation score entry was “inactive”.

As for YIPIYMGWTGRNRTVMH, the amyloid nucleation score result is “inactive”. Consider YITRFLPQVTVWQRVFCCSY, for which the amyloid nucleation score was 7.454 ± 0.039.
